# Reference: the nanobody polyreactivity screen of Harvey et al. (2022)
# Assay: yeast display, Sf9 membrane polyspecificity reagent, FACS + sequencing; frameworks hold sequencing errors
# Method in brief: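 Nanobodies came from a synthetic yeast display library in Saccharomyces cerevisiae BJ5465, induced with galactose for 36–48 hours and stained for 1 hour at 4 °C with 10% biotinylated, detergent-solubilized Sf9 membrane reagent. Cells were enriched on streptavidin microbeads and then FACS-sorted, with low and high (top ~1%) gates set on anti-HA fluorescence for expression and streptavidin fluorescence for reagent binding. Each polyreactivity label reflects the gate a clone came from. Genes were amplified by colony PCR, sequenced by MiSeq 2 × 250 and filtered by CDR length.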
row,Sequence,polyreactivity (PSR sort gate)
1,QVQLVESGGGLVQAGGSLRLSCAASGRTFYRNAMGWYRQAPGKDRELVAAISSGGSTTYADSVKGRFTISRDNAKNTVFFQMNSLKPEATAVYYCAARSHAGSVSPRLKEYDYWGQGTLVTVSS,low polyreactivity
2,QVQLVESGGGLVQAGGSLRLSCAASGRTFYRNAMGWYRQAPGKEREFVAVISVSGGSTYYADSVKGRFTISRDNAKNTVYLQMNSLKPEDTAVSYCAADDYYLAGDYWGQGTQVTVSS,low polyreactivity
3,QVQLVESGGGLVQAGGSLRLSCAASGRTFYRNAMGWYRQAPGKERELVARINDGAGTYYADSVKGRFTISRDNAKNTVYLQMNSLKPEDTAVYYCADDTWGTPTPFVHYPEFEHWGQGTQVTVSS,low polyreactivity
4,QVQLVESGGGLVQAGGSLRLSCAASGRTFYRNAMGWYRQAPGKERELVARITSGGSTNYADSVKGRFTISRDNAKNTVYLQMNSLKPEDTAVYYCAAVSRYYPYGYWGQGTQVNVSS,high polyreactivity
5,QVQLVESGGGLVQAGGSLRLSCAASGRTFYRNTMGWYRQAPGKERELVAAITSSGGSTYYADSVKGRFTISRDNAKNTVYLQMNSLKPEDTAVYYCAAPTWQKVVNPGGYYWGQGTQVTVSS,high polyreactivity
6,QVQLVESGGGLVQAGGSLRLSCAASGRTFYRNVMGWYRQAPGKERELVAAISSRGGSTYYADSVKGRFTISRDNAKNTVYLQMNSLKPEDTAVYYCAAPRASGYYWGQGTQVTVSS,high polyreactivity
7,QVQLVESGGGLVQAGGSLRLSCAASGRTFYRNVMGWYRQAPGKERELVAAISWSGGRTYYADSVKGRFTISRDNAKNTVYLQMNSLKPEDTAVYYCARYDRGGRHYYYWGQGTQVTVSS,high polyreactivity
8,QVQLVESGGGLVQAGGSLRLSCAASGRTFYRYAMGWYRQAPGKERELVAAIRWSGGSTYYADSVKGRFTISRDNAKNTVYLQMNSLKPEDTAVYYCAKDTFRGYSPVKYDFWGQGTQVTVSS,low polyreactivity
9,QVQLVESGGGLVQAGGSLRLSCAASGRTFYRYAMGWYRQAPGKERELVAAISRSGTTYYADSVKGRFTISRDNAKNTVYLQMNSLKPEDTAVYFCAAKPAGRQRGGDYWGQGTQVTVSS,high polyreactivity
10,QVQLVESGGGLVQAGGSLRLSCAASGRTFYRYAMGWYRQAPGKERELVAAITRRGDSTSYADSVKGRFTNSRDNAKNTVYLQMNSLKPEDTADYYCATLVQGSVYGLYGGGYWGQGTQVTVSS,low polyreactivity
11,QVQLVESGGGLVQAGGSLRLSCAASGRTFYRYAMGWYRQAPGKERELVAAITRRSGNTYYADSVKGRFTISRDNAKNTVYLQMNSLKPEDTAVYYCAADPETWSPHYESLGYYWGQGTQVTVSS,high polyreactivity
12,QVQLVESGGGLVQAGGSLRLSCAASGRTFYRYGMGWYRQAPGKEREFVAAITRSGDSTYADSVKGRFTISRDNAKNTVYLQMNSLKPEDTAVYYCAKVFLRQYAYRYYYWGQGTQVTVSS,high polyreactivity
13,QVQLVESGGGLVQAGGSLRLSCAASGRTFYSNAMGWNRQAPGKERELVATITLSGGSTDYADSVKGRFTISRDNAKNTVYLQMNSLKPEDTAVYYCNADTDVHLIMGYWGQVTQVTVSS,low polyreactivity
14,QVQLVESGGGLVQAGGSLRLSCAASGRTFYSNAMGWYRQAPGKERELVAAISSSGTSTRYADSVKGRFTISRDNAKNTVYLQMNSLKPEDTAVYYCAAVGWYHDYYWGQGTQVTVSS,high polyreactivity
15,QVQLVESGGGLVQAGGSLRLSCAASGRTFYSNAMGWYRQAPGKERELVAAITSTDDSTYYADSVKGRFTISRDNAKNTVYLPMNSLKPEDTAVYYCAAESGYPVYTYVSSGDYWGQGTQVTVSS,low polyreactivity
16,QVQLVESGGGLVQAGGSLRLSCAASGRTFYSNAMGWYRQAPGKERELVAGISKRGTITYYADSVKGRFTISRDNAKNTVYLQMNSLKPEDTAVYYCAVGRPSGWSYYTGGDYWGQGTQVTVSS,high polyreactivity
17,QVQLVESGGGLVQAGGSLRLSCAASGRTFYSNAMGWYRQAPGKERELVAVIRWNGGSTYADSVKGRFTISRDNAKNTVYLQMNSLKPEDTAVYYCAVTRYHSPPRYYYWGQGTQVTVSS,low polyreactivity
18,QVQLVESGGGLVQAGGSLRLSCAASGRTFYSNVMGWYRQAPGKERELVAAISKSGGRTYYADSVKGRFTISRDNAKNTVYLQMNSLKPEDTAVYYCATDHGRYHGRYDYWGQGTQVTVSS,high polyreactivity
19,QVQLVESGGGLVQAGGSLRLSCAASGRTFYSYAIGWYRPAPGKERELVASITRSGTRTYYADSVKGRFTISRDNAKNTVYLQMNSLKPEDSAVYYCAARYFPLGGYSWGQGTQVSVSS,high polyreactivity
20,QVQLVESGGGLVQAGGSLRLSCAASGRTFYSYAMGWYRPAPGKERELVAAISRRGGSTYYADSVKGRFTISRDNAKNTVYLQMNSLKPEDTAVYYCAKGGGRVGQPGYDYWGQGTQVTVSS,high polyreactivity
21,QVQLVESGGGLVQAGGSLRLSCAASGRTFYSYAMGWYRPAPGQERELVARITWSGGTYYADSVKGRFTISRDNAKTTVYLQMNSLKPEDTAVYYCNKYRPYGRIYHLAYGRDYWGQGTQVTVSS,high polyreactivity
22,QVQLVESGGGLVQAGGSLRLSCAASGRTFYSYAMGWYRQAPGKERDLVASITRAGSTYYADSVKGRFTISRDNAKNTVYLQMNSLKPEDTAVYYCAATYRSDRRYGSHYRVDYWGQGTQVTVSS,high polyreactivity

row,Sequence,polyreactivity (PSR sort gate)
1,QVQLVESGGGLVQAGGSLRLSCAASGRTFYSYAMGWYRQAPGKERELVAAISSSSGRTYYADSVKGRFTISRDNAKNTVYLQMNSLKPEDTGVYYCNRAGGYRTTFYSWGQGTQVTVSS,high polyreactivity
2,QVQLVESGGGLVQAGGSLRLSCAASGRTFYSYAMGWYRQAPGKERELVAAISYTGASTFYADSVKGRFTISRDKSKNTVYLQMNSLKPEDTAVYYCADRKVRFGVDYWGQGTQVTVSS,high polyreactivity
3,QVQLVESGGGLVQAGGSLRLSCAASGRTFYSYAMGWYRQAPGKERELVAAISYTGASTFYADSVKGRFTISRDNAKNTVYLQMNSLKPEDTAVYYCAGRKVRFGVDYWGQGTQVTVSS,high polyreactivity
4,QVQLVESGGGLVQAGGSLRLSCAASGRTFYSYAMGWYRQAPGKERELVASISSGGGTNYADSVKGRFTISRDNAKNTVYLQMNSLKPEDTAVYYCAAKYWFFYPYDYWGQGTQVTVSS,low polyreactivity
5,QVQLVESGGGLVQAGGSLRLSCAASGRTFYSYAMGWYRQAPGTERELVAAITSSGGRTYYADSVKGRFTISRDNAKNTVYLQMNSLKPEDTAVYYCAAKWITRRGGDFDYWGQGTQVTVSS,high polyreactivity
6,QVQLVESGGGLVQAGGSLRLSCAASGRTFYSYSMGWYRQAPGKERELVAAINRSGGRTYYADSVKGRFTISRDNAKNTVYLQMNSLKPEDTAVYYCNALEYYRYDYWGQGTQVTVSS,high polyreactivity
7,QVQLVESGGGLVQAGGSLRLSCAASGRTFYTNAMGWYRQAPGKERELVAVISRGGTTYYADSVKGRFTISRDNAQNSVSLQMNSLKPDDTAVYYCAKRSPYRYYGYKLRDYWGQGTQVTVSS,low polyreactivity
8,QVQLVESGGGLVQAGGSLRLSCAASGRTFYTYAMGWYRQAPGKEREFVAAITGSGGSTYYADSVKGRFTISRDNAKNTVYLQLNSLKPEDTAVYYCNARSPGDVWYYYWGQGTQVTVSS,low polyreactivity
9,QVQLVESGGGLVQAGGSLRLSCAASGRTFYTYAMGWYRQAPGKERELVAAINWSATRTYYADSVKGRFTISRDNAKNTVYLQMNSLKPEDTAVYYCNAVYYRSSYPSGRYGMDYWGQGTQVTVSS,high polyreactivity
10,QVQLVESGGGLVQAGGSLRLSCAASGRTFYTYAMGWYRQAPGKERELVAAITVTGDSTYYADSVKGRFTISRDNAKNTVYLQMNSLKPEDTAVYYCAADDYDPWYDWTMYYWGQGTQVTVSS,high polyreactivity
11,QVQLVESGGGLVQAGGSLRLSCAASGRTFYTYAMGWYRQAPGKERELVAAITYRGGNTYYADSVKGRFTISRDNAKNTVYLEMNSLKPEDTAVYYCAATYKRRSGQSFDYWGQGTQVTVSS,high polyreactivity
12,QVQLVESGGGLVQAGGSLRLSCAASGRTFYTYAMGWYRQAPGKERELVAGIRTGGGSTYYADSVKGRFTISRDNAKYSVYLQMNSLKPDDTAVYYCAADTYDGYDYWGQGSQVTVSS,low polyreactivity
13,QVQLVESGGGLVQAGGSLRLSCAASGRTFYTYARGWYRQAPGKERELVAAITKRGGSTYYADSVKGRFTISRDYAKNTVYLQMNSLKPEDTAVYYCNQELATARGQSLYRTYSGYGYWGQGTQVTVSS,high polyreactivity
14,QVQLVESGGGLVQAGGSLRLSCAASGRTFYVNAMGWYRQAPGKERELVASITSGGSTYYADSVKGRFTISRDNAKNTVSLQMNSLKPEDTAVYYCAAGSKDLYRPYDYWGQGTQLTVSS,high polyreactivity
15,QVQLVESGGGLVQAGGSLRLSCAASGRTFYVYDMGWYREAPGKVRELVAFISSSGSTNYADSVKGRFTISRDNAKYTVYLQMNSLKPEDTAGYYCNKRLIYYRGTYYSRRFDYWGQGTQVTVSS,high polyreactivity
16,QVQLVESGGGLVQAGGSLRLSCAASGRTFYVYDMGWYRQAPGKERELVAAISNICTRTYYADSVKGRFTISRDNAKNTVYLQMNSLKPEVTAVYYCATGRSRVYKGRGDYWGQGTHVTVSS,high polyreactivity
17,QVQLVESGGGLVQAGGSLRLSCAASGRTFYVYSMGWYRQAPGKERELVAAITASGGSTYYADSVKGRFTLSRDNAKNTVYLQMHSLKPEDTAVYYCAARVVTRVRGVGYNYWGHGTQVTVSS,high polyreactivity
18,QVQLVESGGGLVQAGGSLRLSCAASGRTFYVYTMGWYIQAPGKEREMVAGIAYSGGSTYYADSVKGRFTISRDNAKNTVYLQMNSLKPEDTAVYYCNADLYFPYFDGKTRHGGYWGQGTQVTVSS,low polyreactivity
19,QVQLVESGGGLVQAGGSLRLSCAASGRTFYWNAMGWYRQAPGKERELVAAIRWRGGNTYYADSVKGRFTISRDNAKNTVYLQMNSLKPEDTEVYYCNKYGYKGGVGYDYWGQGTQVTVSS,high polyreactivity
20,QVQLVESGGGLVQAGGSLRLSCAASGRTFYWYTMGWYRQAPGKERELVAAITYRAGSTYYADSVKGRFTISRDNAKNTVYLQMNSLKPEDTAVYYCNADPPPEYYPDKDNYWGQGTQVTVSS,low polyreactivity
21,QVQLVESGGGLVQAGGSLRLSCAASGRTFYWYVMGWYRQAPGKERELVAAITQTGSSTYYADSVKGRFTISRDNAKNTVYLQMNSLKPEDTAAYYCADRLSRNHYEVDYWGQGTQVTVSS,low polyreactivity
